In publication PMC4897640, “Functional diversity of family 3 β-glucosidases from thermophilic cellulolytic fungus Humicola insolens Y1” (Scientific Reports, 2016):

Substrate: O=[N+]([O-])c1ccc(O[C@@H]2O[C@H](CO)[C@@H](O)[C@H](O)[C@H]2O)cc1
Test: purified protein
Conditions: 100 mM Na2HPO4-citric acid
[1] = optimal conditions (pH 5.5, 55 °C in table; 60 °C in text), pH 5.5

B1: HiBgl3C (Mycothermus thermophilus) (protein)
chain: APNCPVVPRQASGTAAWDTAYASARAAVARLSQQDKINIVTGIGWERGPCVGNTAPVNSIGYPQLCLQDGPLGIRFATGTTAFTPGVQAASTWDVDLIRQRGEYLGAEARAVGVHVLLGPVAGALGKIPHGGRNWEGFGSDPYLAGICMAETIEAIQSQGVQACAKHYIVNEQEWMRETMSSNVDDRTMHEIYLWPFADAAHSNVASFMCSYNKINGTWACESDSVQNKLLKQELGFRGYIMSDWNAQHTTVGSANSGMDMTMPGTDFSGGNVLWGPQLNNAVNSGQVSRARLDDMATRILAAWYLVGQDKGYPQVNLRLNVQGNHKENVRAVARDGIVLLRNEGNILPLGRPSRIAVVGSGAVIGRHAQNGCQDKGCNDGALGMGWGSGSVNYPYFVAPYDAIRERASRDGTQVSLHSSDNTNGVQNVVQGADVAIVFITADSGEGYITVEGHPGDRNHLDPWHNGNQLVQAVAAANKNTIVVVHSTGPIILETILNTPGVRAVVWAGLPSQENGNAIVDILYGSTSPSGKLVYTIAKRPEDYGVSIVRGDDNFREGVFVDYRWFDQNNIEPRFEFGFGLSYTNFSYSGLSITSNARAGPATGPTIPGGPADLWETVATVTAQITNTGGVAGAEVAQLYLTLPPTAPPAGPRQLRGFTKLKLQPGQTGTATFKLRKRDLSYWDVGRQQWVVPSGRFTISVGASSRDIRLTGSIDV
- Km [1]: 200 µM
- kcat/Km [1]: 1.56e+06 M⁻¹ s⁻¹

B2: HiBgl3B (Mycothermus thermophilus; I311F) (protein)
chain: RVVEPRDPVPQGYHAASYYPAPHGGWVSSWREAYEKAYALVSQMTLAEKVNITSGVGIYMGPCVGNTGSVDRLGFPQLCLQDSALGVASADNVTAFPAGITTGATWDKQLMYARGVAIGKEFRGKGANIHLGPSVGPLGRKPLGGRNWEGFGSDPVLQGKAAALHIRGVQEQGIIATIKHLVGNEQEMYRMYHIFQEGYSANIDDRTLHELYLWPFAEAVRAGVGAAMTAYNAVNGSACSQNSYLINGILKDELGFQGLVMSDWLSHISGVGSALAGLDLNMPGDTNFPLFGNSLWQYELTRAVLNGSVPVDRLNDMATRVVATWYKFGQDKNHPRPNFSSNTRSRDGPLYPGALFSPSGQVNWFVNVQEDHYLVARQVAQDAITLLKNNDSLLPLDAGDLTGGKLSVFGTDAQVNPDGPNSCLARACNKGTLGMGWGSGIADYPYMDDPIGAIRKRVPDVKFYNTDSFPWFFGTPENDEVAMVFISSDSGENTLTVEGNHGDRDSAKLRAWHDGDKLVQKVAEKFKNVIVVVHTVGPLDLEPWIELPSVKAVLFAHLPGQEAGESLTNVLFGDVSPSGHLPYSITRKASDLPDSIANLKGFTWGQVQDTYSEGLYIDYRYLQKHSIQPRFAFGHGLSYTNFSFTNATIRAITTPLSVTPPAPPATRPASVVAKYSTDIPPASEAYEPAGFSRIWRYLYPWLSKSDADAAHAIGTSKSKTYPYPPGYSTVQRASFPPAGGGEGGNPALWDVAYEVTVRVTNTGKRPGKASAQLYLQFPEGIEYDTPVLQLRDFEKTKELQPGESQELKLTLTRKDVSVWDVRRQNWVVPTAIDDKKGFTAWVGEASDKLKVACYTGEGRCVEGAKQPV
- Km (optimal conditions): 2420 µM
- Vmax (optimal conditions): 6.07 µmol/min/mg
- kcat (optimal conditions): 9.61 s⁻¹
- kcat/Km (optimal conditions): 3980 M⁻¹ s⁻¹

B3: HiBgl3B (Mycothermus thermophilus; T517Y) (protein)
chain: RVVEPRDPVPQGYHAASYYPAPHGGWVSSWREAYEKAYALVSQMTLAEKVNITSGVGIYMGPCVGNTGSVDRLGFPQLCLQDSALGVASADNVTAFPAGITTGATWDKQLMYARGVAIGKEFRGKGANIHLGPSVGPLGRKPLGGRNWEGFGSDPVLQGKAAALHIRGVQEQGIIATIKHLVGNEQEMYRMYHIFQEGYSANIDDRTLHELYLWPFAEAVRAGVGAAMTAYNAVNGSACSQNSYLINGILKDELGFQGLVMSDWLSHISGVGSALAGLDLNMPGDTNIPLFGNSLWQYELTRAVLNGSVPVDRLNDMATRVVATWYKFGQDKNHPRPNFSSNTRSRDGPLYPGALFSPSGQVNWFVNVQEDHYLVARQVAQDAITLLKNNDSLLPLDAGDLTGGKLSVFGTDAQVNPDGPNSCLARACNKGTLGMGWGSGIADYPYMDDPIGAIRKRVPDVKFYNTDSFPWFFGTPENDEVAMVFISSDSGENYLTVEGNHGDRDSAKLRAWHDGDKLVQKVAEKFKNVIVVVHTVGPLDLEPWIELPSVKAVLFAHLPGQEAGESLTNVLFGDVSPSGHLPYSITRKASDLPDSIANLKGFTWGQVQDTYSEGLYIDYRYLQKHSIQPRFAFGHGLSYTNFSFTNATIRAITTPLSVTPPAPPATRPASVVAKYSTDIPPASEAYEPAGFSRIWRYLYPWLSKSDADAAHAIGTSKSKTYPYPPGYSTVQRASFPPAGGGEGGNPALWDVAYEVTVRVTNTGKRPGKASAQLYLQFPEGIEYDTPVLQLRDFEKTKELQPGESQELKLTLTRKDVSVWDVRRQNWVVPTAIDDKKGFTAWVGEASDKLKVACYTGEGRCVEGAKQPV
- Km (optimal conditions): 2370 µM
- Vmax (optimal conditions): 9.51 µmol/min/mg
- kcat (optimal conditions): 15.1 s⁻¹
- kcat/Km (optimal conditions): 6360 M⁻¹ s⁻¹

B4: HiBgl3B (Mycothermus thermophilus; I311F/I81W/T517Y) (protein)
chain: RVVEPRDPVPQGYHAASYYPAPHGGWVSSWREAYEKAYALVSQMTLAEKVNITSGVGWYMGPCVGNTGSVDRLGFPQLCLQDSALGVASADNVTAFPAGITTGATWDKQLMYARGVAIGKEFRGKGANIHLGPSVGPLGRKPLGGRNWEGFGSDPVLQGKAAALHIRGVQEQGIIATIKHLVGNEQEMYRMYHIFQEGYSANIDDRTLHELYLWPFAEAVRAGVGAAMTAYNAVNGSACSQNSYLINGILKDELGFQGLVMSDWLSHISGVGSALAGLDLNMPGDTNFPLFGNSLWQYELTRAVLNGSVPVDRLNDMATRVVATWYKFGQDKNHPRPNFSSNTRSRDGPLYPGALFSPSGQVNWFVNVQEDHYLVARQVAQDAITLLKNNDSLLPLDAGDLTGGKLSVFGTDAQVNPDGPNSCLARACNKGTLGMGWGSGIADYPYMDDPIGAIRKRVPDVKFYNTDSFPWFFGTPENDEVAMVFISSDSGENYLTVEGNHGDRDSAKLRAWHDGDKLVQKVAEKFKNVIVVVHTVGPLDLEPWIELPSVKAVLFAHLPGQEAGESLTNVLFGDVSPSGHLPYSITRKASDLPDSIANLKGFTWGQVQDTYSEGLYIDYRYLQKHSIQPRFAFGHGLSYTNFSFTNATIRAITTPLSVTPPAPPATRPASVVAKYSTDIPPASEAYEPAGFSRIWRYLYPWLSKSDADAAHAIGTSKSKTYPYPPGYSTVQRASFPPAGGGEGGNPALWDVAYEVTVRVTNTGKRPGKASAQLYLQFPEGIEYDTPVLQLRDFEKTKELQPGESQELKLTLTRKDVSVWDVRRQNWVVPTAIDDKKGFTAWVGEASDKLKVACYTGEGRCVEGAKQPV
- Km (optimal conditions): 2480 µM
- Vmax (optimal conditions): 2.68 µmol/min/mg
- kcat (optimal conditions): 4.24 s⁻¹
- kcat/Km (optimal conditions): 1710 M⁻¹ s⁻¹

B5: HiBgl3A (Mycothermus thermophilus) (protein)
chain: NRHRQVIGRNHLNHHHRSQRELAYSPPSYPSPWMDPKAAEWQNAYAKAKAFVSKLTLLEKVNLTTGVGWASEQCVGNTGSVPRLGLRGLCLHDSPLGIRGSDYNSAFPSGQTTAATFDRILMYRRGYAMGKEAKGKGINVLLGPVAGPLGRMPAAGRNWEGFSPDPVLTGVGMAETIKGIQDAGVVACAKHLIGNEQEHFRQAGEDYGFNITEALSSNIDDKTMHELYLWPFVDAVRAGVGSVMCAYTQVNNSYSCQNSYLLNYLLKNELGFQGFVMSDWQAQHAGVSAAVAGLDMSMPGDTTFNTGVSFWGANLTLAVLNGTVPRYRIDDMAMRIMAAFFKVHPDIHLDPVNFSFWTRQTYGPLHWRAGDGYQQVNFHVDVREDHHLLIREIAAKGTVLLKNTGGLPLKKPKFIAVIGDDAGPNPNGPNSCDDRGCNNGTLAMGWGSGTANFPYLITPDAALQARALRDGTRYESVLTNYALEKTETLVSQANATAIVFVNANSGEGYTRVDGNMGDRKNLTLWGNGDDLIKNVSSWCSNTIVVIHSTGPVLLTDWYNSPNITAILWAGLPGQESGNSLVDVLYGDVNPAGRTPFTWGATRESYGVDVMYKPNNDDGAPQQDFDEGVFIDYRYFDREDTPVIYEFGHGLSYTTFNYSNLKIEKHNAEPYKPTTGKTTPAPTFGQDDAYGYTGSEKYLFPPSPFRRITDYIYPYLNSTDPHEASLDPHYGQTAEQFLPPGALRADEQPLLRASGQHQPGGNPGLWDVLYTITADITNMGSVTGDEVPQLYVSLGGPQDPKVVLRGFDRLREIGPGETRQFMARLTRRDLSNWDPVLQDWVVGGHKKTVFVGKSSRKLELSAELP
- Km (pH 5.5, 60 °C, pH 5.5, 60.0 °C): 900 µM
- Vmax (pH 5.5, 60 °C, pH 5.5, 60.0 °C): 46.2 µmol/min/mg
- kcat (pH 5.5, 60 °C, pH 5.5, 60.0 °C): 73.1 s⁻¹
- kcat/Km (pH 5.5, 60 °C, pH 5.5, 60.0 °C): 81600 M⁻¹ s⁻¹

B6: HiBgl3A (Mycothermus thermophilus; Y529T) (protein)
chain: NRHRQVIGRNHLNHHHRSQRELAYSPPSYPSPWMDPKAAEWQNAYAKAKAFVSKLTLLEKVNLTTGVGWASEQCVGNTGSVPRLGLRGLCLHDSPLGIRGSDYNSAFPSGQTTAATFDRILMYRRGYAMGKEAKGKGINVLLGPVAGPLGRMPAAGRNWEGFSPDPVLTGVGMAETIKGIQDAGVVACAKHLIGNEQEHFRQAGEDYGFNITEALSSNIDDKTMHELYLWPFVDAVRAGVGSVMCAYTQVNNSYSCQNSYLLNYLLKNELGFQGFVMSDWQAQHAGVSAAVAGLDMSMPGDTTFNTGVSFWGANLTLAVLNGTVPRYRIDDMAMRIMAAFFKVHPDIHLDPVNFSFWTRQTYGPLHWRAGDGYQQVNFHVDVREDHHLLIREIAAKGTVLLKNTGGLPLKKPKFIAVIGDDAGPNPNGPNSCDDRGCNNGTLAMGWGSGTANFPYLITPDAALQARALRDGTRYESVLTNYALEKTETLVSQANATAIVFVNANSGEGTTRVDGNMGDRKNLTLWGNGDDLIKNVSSWCSNTIVVIHSTGPVLLTDWYNSPNITAILWAGLPGQESGNSLVDVLYGDVNPAGRTPFTWGATRESYGVDVMYKPNNDDGAPQQDFDEGVFIDYRYFDREDTPVIYEFGHGLSYTTFNYSNLKIEKHNAEPYKPTTGKTTPAPTFGQDDAYGYTGSEKYLFPPSPFRRITDYIYPYLNSTDPHEASLDPHYGQTAEQFLPPGALRADEQPLLRASGQHQPGGNPGLWDVLYTITADITNMGSVTGDEVPQLYVSLGGPQDPKVVLRGFDRLREIGPGETRQFMARLTRRDLSNWDPVLQDWVVGGHKKTVFVGKSSRKLELSAELP
- Km (optimal conditions): 2450 µM
- Vmax (optimal conditions): 43 µmol/min/mg
- kcat (optimal conditions): 68.2 s⁻¹
- kcat/Km (optimal conditions): 27800 M⁻¹ s⁻¹
